Measurements published in patent publication US20220332804A1 (CSL INNOVATION, published 2022).

Legend:
Experiment in all cases: SPR, KD relative to WT C2;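 also: biacore SPR at 37 °C, anti-C2 mAbs captured on anti-human IgG chips with alanine or serine point mutants of C2 as analyte, KD from 1:1 fit compared with wild-type C2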
[1] = target: T1, human C2 V465A (human, UniProt P06681 21-752)
T1 sequence: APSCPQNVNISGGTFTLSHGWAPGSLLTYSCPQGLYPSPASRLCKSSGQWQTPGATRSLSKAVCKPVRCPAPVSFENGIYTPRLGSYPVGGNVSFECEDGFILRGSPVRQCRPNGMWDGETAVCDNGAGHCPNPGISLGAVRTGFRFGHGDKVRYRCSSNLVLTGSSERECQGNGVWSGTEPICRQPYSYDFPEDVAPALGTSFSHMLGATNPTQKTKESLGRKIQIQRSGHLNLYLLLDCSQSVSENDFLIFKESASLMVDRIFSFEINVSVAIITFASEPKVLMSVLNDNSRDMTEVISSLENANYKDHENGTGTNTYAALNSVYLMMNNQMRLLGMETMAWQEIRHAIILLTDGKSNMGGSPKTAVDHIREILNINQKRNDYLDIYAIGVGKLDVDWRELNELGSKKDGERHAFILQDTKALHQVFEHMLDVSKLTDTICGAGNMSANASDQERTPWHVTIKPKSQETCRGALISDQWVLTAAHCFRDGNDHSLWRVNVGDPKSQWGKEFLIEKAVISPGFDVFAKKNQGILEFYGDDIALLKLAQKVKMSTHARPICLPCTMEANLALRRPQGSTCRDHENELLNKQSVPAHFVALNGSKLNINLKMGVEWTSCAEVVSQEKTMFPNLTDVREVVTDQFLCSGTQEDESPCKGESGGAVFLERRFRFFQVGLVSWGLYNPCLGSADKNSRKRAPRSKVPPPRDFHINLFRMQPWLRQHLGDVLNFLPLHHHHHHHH

[2] = target: T2, human C2 K329A (human, UniProt P06681 21-752)
T2 sequence: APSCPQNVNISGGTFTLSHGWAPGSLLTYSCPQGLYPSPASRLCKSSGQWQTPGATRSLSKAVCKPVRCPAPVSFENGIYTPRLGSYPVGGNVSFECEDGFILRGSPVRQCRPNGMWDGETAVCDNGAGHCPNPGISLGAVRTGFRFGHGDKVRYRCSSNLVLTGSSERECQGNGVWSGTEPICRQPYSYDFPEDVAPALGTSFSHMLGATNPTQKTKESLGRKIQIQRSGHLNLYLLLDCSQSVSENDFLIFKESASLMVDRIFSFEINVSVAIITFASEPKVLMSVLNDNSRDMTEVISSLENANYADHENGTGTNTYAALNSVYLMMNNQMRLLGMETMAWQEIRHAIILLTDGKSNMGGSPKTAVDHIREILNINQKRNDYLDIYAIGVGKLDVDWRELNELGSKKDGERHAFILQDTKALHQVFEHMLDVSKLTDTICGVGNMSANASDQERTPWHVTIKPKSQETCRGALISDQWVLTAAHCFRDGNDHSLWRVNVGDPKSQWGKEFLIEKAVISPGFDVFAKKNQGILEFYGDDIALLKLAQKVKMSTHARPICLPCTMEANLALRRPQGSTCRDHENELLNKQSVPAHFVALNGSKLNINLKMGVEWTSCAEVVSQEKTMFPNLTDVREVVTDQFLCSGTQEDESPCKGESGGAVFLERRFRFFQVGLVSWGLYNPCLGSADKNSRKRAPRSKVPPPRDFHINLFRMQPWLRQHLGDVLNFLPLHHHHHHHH

[3] = target: T3, human C2 Q447A (human, UniProt P06681 21-752)
T3 sequence: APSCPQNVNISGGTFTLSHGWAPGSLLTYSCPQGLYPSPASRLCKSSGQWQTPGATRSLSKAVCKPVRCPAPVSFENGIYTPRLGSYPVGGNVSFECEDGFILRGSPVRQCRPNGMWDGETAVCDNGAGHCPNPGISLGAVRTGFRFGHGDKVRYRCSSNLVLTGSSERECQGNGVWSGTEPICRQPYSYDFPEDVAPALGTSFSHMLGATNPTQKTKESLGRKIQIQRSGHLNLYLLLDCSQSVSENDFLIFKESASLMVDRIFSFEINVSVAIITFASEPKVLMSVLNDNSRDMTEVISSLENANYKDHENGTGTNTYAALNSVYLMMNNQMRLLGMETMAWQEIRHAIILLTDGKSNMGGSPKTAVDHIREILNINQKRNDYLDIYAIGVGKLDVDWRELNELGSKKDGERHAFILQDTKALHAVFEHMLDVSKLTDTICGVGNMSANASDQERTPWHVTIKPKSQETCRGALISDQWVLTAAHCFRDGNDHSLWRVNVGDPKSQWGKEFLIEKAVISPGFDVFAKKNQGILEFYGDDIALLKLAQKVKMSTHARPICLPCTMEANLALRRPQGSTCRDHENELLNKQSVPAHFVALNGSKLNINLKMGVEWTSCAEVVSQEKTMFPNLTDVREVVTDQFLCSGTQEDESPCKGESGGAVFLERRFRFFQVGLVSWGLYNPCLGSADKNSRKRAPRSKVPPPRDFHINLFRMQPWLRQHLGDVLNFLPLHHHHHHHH

[4] = target: T4, human C2 S469A (human, UniProt P06681 21-752)
T4 sequence: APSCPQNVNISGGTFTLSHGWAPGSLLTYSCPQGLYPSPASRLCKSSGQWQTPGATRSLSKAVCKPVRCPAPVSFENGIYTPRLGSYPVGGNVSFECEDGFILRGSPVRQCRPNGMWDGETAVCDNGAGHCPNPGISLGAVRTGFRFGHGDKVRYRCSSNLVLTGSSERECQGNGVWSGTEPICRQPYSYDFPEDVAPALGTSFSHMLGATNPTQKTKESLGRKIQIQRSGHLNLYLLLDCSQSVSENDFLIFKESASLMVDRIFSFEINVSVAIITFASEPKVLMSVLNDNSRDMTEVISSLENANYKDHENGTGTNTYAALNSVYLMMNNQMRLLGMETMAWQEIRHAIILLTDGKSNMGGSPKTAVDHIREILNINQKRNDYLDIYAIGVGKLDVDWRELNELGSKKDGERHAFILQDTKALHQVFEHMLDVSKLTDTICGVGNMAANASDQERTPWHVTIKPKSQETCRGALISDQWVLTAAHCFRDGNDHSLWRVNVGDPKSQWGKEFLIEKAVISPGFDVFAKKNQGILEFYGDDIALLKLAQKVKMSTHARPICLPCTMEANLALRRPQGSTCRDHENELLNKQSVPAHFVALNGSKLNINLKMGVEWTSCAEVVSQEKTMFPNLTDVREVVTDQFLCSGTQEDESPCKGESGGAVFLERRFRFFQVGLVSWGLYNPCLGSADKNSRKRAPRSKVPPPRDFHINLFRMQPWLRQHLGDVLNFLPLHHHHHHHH

B1: RF16-242 (antibody, human IgG4 S228P, lambda, V domains shown)
VH: EVQLLQSGAEVKKPGESLKISCKGSGYSFTSYWIGWVRQMPGKGLEWMGIIYPGDSDTRYSPSFQGQVTISADKSISTAYLQWSSLKASDTAMYYCARRGHYGDYFDYWGQGTLVTVSS
VL: SYELTQPPSVSVSPGQTARITCSGDALPKKYAYWYHQKSGQAPVLVIYEDRRRPSEIPERFSGSSSGTMATLTITGAQVEDEGVYFCYSRDRAGNQRVFGGGTQLTVLG
notes: pH-dependent anti-C2 antibody from a phage display library
Fold diff [1]: 2 fold | Fold diff [2]: 2 fold | Fold diff [3]: 4 fold | Fold diff [4]: 3 fold
